Consider five sequences from patent publication US20150258192A1, “COMPOSITIONS AND METHODS FOR PREVENTING OR TREATING CHRONIC LUNG ALLOGRAFT DYSFUNCTION (CLAD) AND IDIOPATHIC PULMONARY FIBROSIS (IPF)” (priority 2014, published 2015).

No end group written: not given here.

Assay in all cases: Kinase Profiling Assay
Common to all, as to type: biochemical
Common to all, as to details: peptide 100 μM

The target of assay [1] is PRK2(h) (Homo sapiens, UniProt Q16513). Put shortly: (§1)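 Each kinase activity was measured in duplicate. Phosphorylation of a positively charged substrate with radiolabeled phosphate from ATP was captured on a negatively charged filter, counted by scintillation and expressed relative to a 100% activity control. MK2 inhibitory peptides were screened for specificity across 266 human kinases.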
Sequence of PRK2(h) (Q16513 whole entry): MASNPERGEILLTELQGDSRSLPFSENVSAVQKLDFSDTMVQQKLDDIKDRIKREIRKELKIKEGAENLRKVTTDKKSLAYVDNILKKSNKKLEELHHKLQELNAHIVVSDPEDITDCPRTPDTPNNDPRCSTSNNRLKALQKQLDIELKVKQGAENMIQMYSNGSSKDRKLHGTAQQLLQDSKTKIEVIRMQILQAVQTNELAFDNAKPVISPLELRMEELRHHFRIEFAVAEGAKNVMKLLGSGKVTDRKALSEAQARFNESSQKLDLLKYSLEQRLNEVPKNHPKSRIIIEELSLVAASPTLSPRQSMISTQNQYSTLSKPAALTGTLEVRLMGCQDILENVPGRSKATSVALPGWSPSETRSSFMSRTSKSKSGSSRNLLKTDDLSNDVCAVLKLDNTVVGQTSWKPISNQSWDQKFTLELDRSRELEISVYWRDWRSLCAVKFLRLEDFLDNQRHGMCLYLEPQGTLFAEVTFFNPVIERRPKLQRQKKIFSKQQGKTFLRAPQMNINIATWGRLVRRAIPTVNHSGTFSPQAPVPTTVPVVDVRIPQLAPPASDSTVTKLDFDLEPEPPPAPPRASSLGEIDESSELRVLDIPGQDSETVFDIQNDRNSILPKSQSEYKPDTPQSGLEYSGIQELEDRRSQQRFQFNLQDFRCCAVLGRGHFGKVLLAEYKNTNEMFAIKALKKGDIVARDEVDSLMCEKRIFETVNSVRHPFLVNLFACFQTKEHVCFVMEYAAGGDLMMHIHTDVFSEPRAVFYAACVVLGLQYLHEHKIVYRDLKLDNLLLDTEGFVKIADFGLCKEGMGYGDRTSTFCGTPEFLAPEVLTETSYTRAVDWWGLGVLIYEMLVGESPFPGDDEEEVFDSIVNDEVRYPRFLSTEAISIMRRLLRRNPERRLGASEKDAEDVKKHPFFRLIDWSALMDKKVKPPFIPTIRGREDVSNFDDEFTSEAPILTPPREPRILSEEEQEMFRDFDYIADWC

Assay [2] has as its target WNK3(h) (Homo sapiens, UniProt Q9BYP7). An outline of the steps:
as §1

Assay [3] addresses T1, GCK(h) (Homo sapiens, UniProt Q12851).
T1 construct: purchased Millipore
T1 sequence (Q12851 1-820): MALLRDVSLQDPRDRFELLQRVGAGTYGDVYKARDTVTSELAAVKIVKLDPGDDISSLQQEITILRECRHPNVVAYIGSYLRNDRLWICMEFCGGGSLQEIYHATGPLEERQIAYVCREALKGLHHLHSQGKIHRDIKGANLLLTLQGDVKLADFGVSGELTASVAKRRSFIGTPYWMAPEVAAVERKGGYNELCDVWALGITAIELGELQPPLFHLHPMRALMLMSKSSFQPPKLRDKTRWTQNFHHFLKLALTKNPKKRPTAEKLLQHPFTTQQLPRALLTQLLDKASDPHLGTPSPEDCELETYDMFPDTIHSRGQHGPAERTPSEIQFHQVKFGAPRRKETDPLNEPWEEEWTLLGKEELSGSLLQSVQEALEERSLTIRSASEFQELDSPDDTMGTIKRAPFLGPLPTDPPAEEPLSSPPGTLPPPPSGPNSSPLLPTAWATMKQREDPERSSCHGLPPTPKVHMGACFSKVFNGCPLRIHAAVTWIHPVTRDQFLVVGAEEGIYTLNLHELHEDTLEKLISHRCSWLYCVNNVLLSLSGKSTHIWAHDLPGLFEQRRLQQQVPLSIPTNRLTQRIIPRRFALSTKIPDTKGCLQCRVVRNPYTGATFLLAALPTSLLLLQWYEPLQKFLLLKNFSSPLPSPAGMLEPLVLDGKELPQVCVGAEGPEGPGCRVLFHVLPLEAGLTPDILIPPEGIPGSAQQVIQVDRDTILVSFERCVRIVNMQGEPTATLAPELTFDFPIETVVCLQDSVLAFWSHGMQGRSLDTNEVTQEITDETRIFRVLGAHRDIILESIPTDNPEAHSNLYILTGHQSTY
An outline of the steps:
as §1

Assay [4] concerns the target T2, mTOR/FKBP12(h) (Homo sapiens, UniProt P42345).
T2 construct: purchased Millipore
Put shortly:
as §1

Assay [5] addresses T3, DMPK(h) (Homo sapiens, UniProt Q09013).
T3 sequence (Q09013 1-629): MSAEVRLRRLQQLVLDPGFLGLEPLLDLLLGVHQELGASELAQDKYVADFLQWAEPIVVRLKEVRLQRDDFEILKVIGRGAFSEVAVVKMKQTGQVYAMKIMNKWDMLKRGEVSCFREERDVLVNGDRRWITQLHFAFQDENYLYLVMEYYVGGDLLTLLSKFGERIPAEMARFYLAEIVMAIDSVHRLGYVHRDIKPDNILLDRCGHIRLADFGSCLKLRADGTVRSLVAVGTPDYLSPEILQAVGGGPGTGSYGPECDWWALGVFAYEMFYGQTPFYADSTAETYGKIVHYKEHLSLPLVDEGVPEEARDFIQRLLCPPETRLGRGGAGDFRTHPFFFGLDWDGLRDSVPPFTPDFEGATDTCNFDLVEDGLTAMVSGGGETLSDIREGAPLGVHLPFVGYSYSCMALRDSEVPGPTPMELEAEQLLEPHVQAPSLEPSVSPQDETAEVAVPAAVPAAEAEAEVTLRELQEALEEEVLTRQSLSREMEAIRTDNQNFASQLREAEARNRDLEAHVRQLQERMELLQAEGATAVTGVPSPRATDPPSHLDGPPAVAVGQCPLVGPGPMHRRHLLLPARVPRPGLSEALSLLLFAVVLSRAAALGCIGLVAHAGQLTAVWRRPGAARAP
Put shortly:
as §1

Assay [6] deals with T4, Rsk3(h) (Homo sapiens, UniProt Q15349).
T4 construct: purchased Millipore
An outline of the steps: as §1

Assay [7] has as its target Tie2(Y897S)(h) (Homo sapiens, UniProt Q02763, Y897S). An outline of the steps:
as §1

Assay [8] addresses T5, Met(Y1248C)(h) (Homo sapiens, UniProt P08581, Y1230C).
T5 construct: purchased Millipore
An outline of the steps:
as §1

For assay [9], the target named is T6, Lck(h) activated (Homo sapiens, UniProt P06239).
T6 construct: purchased Millipore
Put shortly:
as §1

Assay [10] concerns the target T7, Met(Y1248D)(h) (Homo sapiens, UniProt P08581, Y1230D).
T7 construct: purchased Millipore
An outline of the steps:
as §1

The target in assay [11] is T8, MAPK1(h) (Homo sapiens, UniProt P27361).
T8 construct: purchased Millipore
An outline of the steps: as §1

Sequence of WNK3(h) (Q9BYP7 whole entry): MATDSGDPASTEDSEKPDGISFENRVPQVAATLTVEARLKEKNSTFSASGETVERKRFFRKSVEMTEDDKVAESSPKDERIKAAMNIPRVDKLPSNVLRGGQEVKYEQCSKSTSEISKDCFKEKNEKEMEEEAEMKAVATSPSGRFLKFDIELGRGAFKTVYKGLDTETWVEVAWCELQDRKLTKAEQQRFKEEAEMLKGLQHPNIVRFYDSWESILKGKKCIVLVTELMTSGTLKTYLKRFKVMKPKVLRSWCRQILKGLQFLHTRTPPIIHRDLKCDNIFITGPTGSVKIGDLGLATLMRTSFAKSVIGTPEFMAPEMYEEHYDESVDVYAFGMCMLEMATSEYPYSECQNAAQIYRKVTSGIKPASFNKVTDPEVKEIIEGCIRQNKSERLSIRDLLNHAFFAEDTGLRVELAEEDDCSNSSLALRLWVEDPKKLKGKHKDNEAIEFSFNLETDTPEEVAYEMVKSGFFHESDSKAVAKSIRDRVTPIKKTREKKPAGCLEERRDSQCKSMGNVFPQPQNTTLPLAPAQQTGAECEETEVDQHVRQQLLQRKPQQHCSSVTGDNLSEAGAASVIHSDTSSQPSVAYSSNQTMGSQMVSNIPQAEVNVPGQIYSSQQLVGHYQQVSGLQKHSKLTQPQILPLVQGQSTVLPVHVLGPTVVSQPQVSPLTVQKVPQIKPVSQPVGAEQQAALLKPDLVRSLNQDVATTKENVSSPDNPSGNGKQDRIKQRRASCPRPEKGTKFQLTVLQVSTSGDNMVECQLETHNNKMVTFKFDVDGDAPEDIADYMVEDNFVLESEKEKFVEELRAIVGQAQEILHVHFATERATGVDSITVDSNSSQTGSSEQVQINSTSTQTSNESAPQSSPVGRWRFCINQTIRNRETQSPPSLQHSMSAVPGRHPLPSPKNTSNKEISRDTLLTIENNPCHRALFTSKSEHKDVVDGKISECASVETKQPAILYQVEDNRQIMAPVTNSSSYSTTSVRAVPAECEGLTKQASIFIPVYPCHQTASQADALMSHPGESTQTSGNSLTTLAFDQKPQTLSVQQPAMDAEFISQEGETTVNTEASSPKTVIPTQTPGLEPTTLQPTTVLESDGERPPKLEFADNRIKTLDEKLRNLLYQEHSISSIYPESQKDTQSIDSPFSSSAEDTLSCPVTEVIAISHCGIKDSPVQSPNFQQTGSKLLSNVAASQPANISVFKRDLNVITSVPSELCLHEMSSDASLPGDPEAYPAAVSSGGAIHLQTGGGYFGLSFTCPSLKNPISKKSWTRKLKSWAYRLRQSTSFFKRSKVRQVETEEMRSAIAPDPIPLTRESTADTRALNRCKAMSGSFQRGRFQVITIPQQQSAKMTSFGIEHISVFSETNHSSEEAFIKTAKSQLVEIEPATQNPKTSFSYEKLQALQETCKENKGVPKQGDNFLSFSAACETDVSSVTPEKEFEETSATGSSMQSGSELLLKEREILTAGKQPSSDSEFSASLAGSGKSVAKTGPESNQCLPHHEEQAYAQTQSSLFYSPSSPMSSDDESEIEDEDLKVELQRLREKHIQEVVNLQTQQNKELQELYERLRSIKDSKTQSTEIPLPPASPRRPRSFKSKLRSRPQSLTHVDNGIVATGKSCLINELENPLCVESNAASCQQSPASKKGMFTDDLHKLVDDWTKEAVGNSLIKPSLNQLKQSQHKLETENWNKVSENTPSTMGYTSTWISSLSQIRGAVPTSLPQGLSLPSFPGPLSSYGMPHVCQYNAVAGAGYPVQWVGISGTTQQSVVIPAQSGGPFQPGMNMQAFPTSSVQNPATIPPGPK
T2 sequence (P42345 1362-2549 limits assumed): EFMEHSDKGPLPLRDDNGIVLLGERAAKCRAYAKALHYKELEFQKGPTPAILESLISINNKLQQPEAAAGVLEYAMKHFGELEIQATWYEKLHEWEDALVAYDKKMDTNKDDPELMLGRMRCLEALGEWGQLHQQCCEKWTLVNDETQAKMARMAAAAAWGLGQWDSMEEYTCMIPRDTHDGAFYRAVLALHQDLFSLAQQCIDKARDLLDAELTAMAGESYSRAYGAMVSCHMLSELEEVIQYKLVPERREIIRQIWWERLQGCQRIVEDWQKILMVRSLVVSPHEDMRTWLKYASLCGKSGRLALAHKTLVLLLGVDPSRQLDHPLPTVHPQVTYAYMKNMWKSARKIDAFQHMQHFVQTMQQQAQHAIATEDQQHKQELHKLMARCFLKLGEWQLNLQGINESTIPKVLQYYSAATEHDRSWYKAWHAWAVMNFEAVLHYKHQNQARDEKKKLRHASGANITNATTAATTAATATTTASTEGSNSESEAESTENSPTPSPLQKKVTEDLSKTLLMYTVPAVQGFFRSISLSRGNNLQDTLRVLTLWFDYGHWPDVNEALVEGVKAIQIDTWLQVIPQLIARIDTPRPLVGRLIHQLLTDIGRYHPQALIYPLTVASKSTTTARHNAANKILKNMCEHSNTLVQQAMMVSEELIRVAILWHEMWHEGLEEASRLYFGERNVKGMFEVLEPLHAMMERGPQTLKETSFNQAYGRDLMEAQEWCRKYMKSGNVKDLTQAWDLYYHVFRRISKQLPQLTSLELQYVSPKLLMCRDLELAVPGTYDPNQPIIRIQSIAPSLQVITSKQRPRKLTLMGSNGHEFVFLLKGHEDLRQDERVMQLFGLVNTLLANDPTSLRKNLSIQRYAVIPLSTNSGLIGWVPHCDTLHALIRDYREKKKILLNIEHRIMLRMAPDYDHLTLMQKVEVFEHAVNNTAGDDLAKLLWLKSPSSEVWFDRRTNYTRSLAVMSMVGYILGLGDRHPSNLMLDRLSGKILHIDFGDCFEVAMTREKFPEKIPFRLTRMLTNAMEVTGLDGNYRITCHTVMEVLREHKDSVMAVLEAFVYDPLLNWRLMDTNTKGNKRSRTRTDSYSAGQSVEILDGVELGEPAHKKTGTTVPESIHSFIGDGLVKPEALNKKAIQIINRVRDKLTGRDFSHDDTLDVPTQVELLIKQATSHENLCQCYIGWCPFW
Sequence of Tie2(Y897S)(h) (Q02763 23-1124 Y897S): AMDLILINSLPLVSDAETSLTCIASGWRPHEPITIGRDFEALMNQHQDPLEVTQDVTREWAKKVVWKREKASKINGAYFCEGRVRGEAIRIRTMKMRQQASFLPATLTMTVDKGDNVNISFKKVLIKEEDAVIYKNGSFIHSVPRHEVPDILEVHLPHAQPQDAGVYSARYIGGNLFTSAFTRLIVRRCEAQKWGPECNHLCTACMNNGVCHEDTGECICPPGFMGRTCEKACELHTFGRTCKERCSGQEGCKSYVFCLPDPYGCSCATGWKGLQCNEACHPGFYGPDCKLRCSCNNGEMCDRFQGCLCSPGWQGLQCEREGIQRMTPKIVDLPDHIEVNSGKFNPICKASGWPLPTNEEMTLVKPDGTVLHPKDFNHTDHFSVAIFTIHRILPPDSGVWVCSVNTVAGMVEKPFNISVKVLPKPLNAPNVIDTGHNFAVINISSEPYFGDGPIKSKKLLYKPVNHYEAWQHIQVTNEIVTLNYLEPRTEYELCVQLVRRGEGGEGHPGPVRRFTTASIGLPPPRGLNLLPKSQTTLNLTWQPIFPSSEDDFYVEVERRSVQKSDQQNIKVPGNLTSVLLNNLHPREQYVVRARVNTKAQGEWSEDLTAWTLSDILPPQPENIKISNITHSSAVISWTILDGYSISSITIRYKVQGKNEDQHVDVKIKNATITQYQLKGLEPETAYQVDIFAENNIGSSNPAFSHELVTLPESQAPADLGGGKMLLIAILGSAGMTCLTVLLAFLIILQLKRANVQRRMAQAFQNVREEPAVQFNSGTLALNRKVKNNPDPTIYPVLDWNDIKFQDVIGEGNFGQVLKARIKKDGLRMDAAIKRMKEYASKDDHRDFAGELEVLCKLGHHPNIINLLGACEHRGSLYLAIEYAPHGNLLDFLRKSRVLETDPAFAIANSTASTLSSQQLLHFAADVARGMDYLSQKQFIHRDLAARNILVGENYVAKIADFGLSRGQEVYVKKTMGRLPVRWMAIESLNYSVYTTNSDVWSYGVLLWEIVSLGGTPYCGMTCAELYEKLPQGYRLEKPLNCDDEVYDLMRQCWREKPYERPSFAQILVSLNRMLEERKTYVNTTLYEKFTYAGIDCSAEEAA

On to FAKLAARLYRKALARQLGVAA [MMI-0300], for which the “% activity” value was found to be 33% in assay [1]; 77% in assay [2]; 70% in assay [3]; 145% in assay [4]; 59% in assay [5]; 76% in assay [6]. Also, the results for the “% activity” value in assay [7], in assay [8] and in [9] were 83%, 84% and 243%, respectively.

On to “HRRIKAWLKKIKALARQLGVAA (Mammal) [MMI-0500]”, for which the “% activity” value is on record as 7% in assay [1]; 9% in assay [2]; 30% in assay [3]; 140% in [4]; 12% in [5]; 23% in assay [6]. Besides, the “% activity” value came out at 80% in assay [7], 218% in assay [10], 73% in assay [8] and 76% in assay [9].

Take KAFAKLAARLYRKALARQLGVAA [MMI-0400]: the “% activity” value in [1] turned out to be 27%; in [2], 74%; in assay [11], 100%; in assay [3], 66%; in assay [4], 125%; in assay [5], 54%. For the same sequence, the “% activity” value in [6] is 71%; in [7] it was 87%; in assay [10], 31%; in [8] it was 36%; in assay [9], 216%.

In the case of YARAAARQARAKALARQLGVAA [MMI-0100], the “% activity” value worked out at 72% in assay [1]; 100% in assay [2]; 108% in assay [11]; 98% in [3]; 99% in [7]; 87% in assay [10]. The “% activity” value in assay [8] turned out to be 77%.

Regarding “YARAAARQARAKALNRQLGVA (Mammal) [MMI-0200]”, the “% activity” value in [1] is recorded as 74%; in assay [2], 97%; in [11], 97%; in [3], 99%; in assay [4] it was 118%; in assay [5], 66%. Moreover, the “% activity” value worked out at 85% in assay [7], 118% in assay [10], 141% in [8] and 90% in [9].
